Test results as given in article PMC10239968, “[^18F]AlF-NOTA-ADH-1: A new PET molecular radiotracer for imaging of N-cadherin-positive tumors” (Frontiers in Oncology, 2023).

Test: in vivo
Set-up: species or system Kunming mice
Details: mouse; for tissue uptake at 2 min / tissue uptake at 5 min / tissue uptake at 0.25 h / tissue uptake at 0.5 h / tissue uptake at 1 h / tissue uptake at 2 h: Kunming, total radioactivity
Protocol: Thirty SPF Kunming mice weighing 18-20g were randomly divided into 6 groups (n=5). As described above, [^18F]AlF-NOTA-ADH-1 was purified and separated by HPLC analysis. Each mouse was injected with a dose of 0.74MBq (20μCi) through a caudal vein. Blood was collected from the orbit, the mice were sacrificed, and the brain, heart, lung, liver, spleen, kidney, stomach, intestine, muscle, bone and other organs were taken at 2 min, 5 min, 15 min, 30 min, 60min and 120min after injection. The radioactivity results were recorded as injected radioactivity per gram of tissue (% ID/g) corrected for background and decay.

[1] = iv, 0.74 MBq (20 uCi) per mouse, Blood radioactive concentration
[2] = iv, 0.74 MBq (20 uCi) per mouse, Bone uptake
[3] = iv, 0.74 MBq (20 uCi) per mouse, Brain uptake
[4] = iv, 0.74 MBq (20 uCi) per mouse, Intestines uptake
[5] = iv, 0.74 MBq (20 uCi) per mouse, Muscle uptake
[6] = iv, 0.74 MBq (20 uCi) per mouse, Skin uptake

CC(=O)N[C@H]1CSSC[C@@H](C(=O)NCCNC(=O)CN2CCN(CC(=O)O)CCN(CC(=O)O)CC2)NC(=O)[C@H](C(C)C)NC(=O)[C@H](C)NC(=O)[C@H](Cc2c[nH]cn2)NC1=O [[^18F]AlF-NOTA-ADH-1]
tissue uptake at 2 min [1]: 18.8 ± 1.95 %ID/g | tissue uptake at 5 min [1]: 8.77 ± 1.37 %ID/g | tissue uptake at 0.25 h [1]: 3.79 ± 1.19 %ID/g | tissue uptake at 0.5 h [1]: 2.28 ± 0.81 %ID/g | tissue uptake at 1 h [1]: 2.15 ± 0.18 %ID/g | tissue uptake at 2 h [1]: 1.04 ± 0.36 %ID/g | tissue uptake at 2 min [2]: 5.3 ± 0.94 %ID/g | tissue uptake at 5 min [2]: 6.71 ± 0.62 %ID/g | tissue uptake at 0.25 h [2]: 3.72 ± 0.29 %ID/g | tissue uptake at 0.5 h [2]: 3.09 ± 0.26 %ID/g | tissue uptake at 1 h [2]: 1.51 ± 0.36 %ID/g | tissue uptake at 2 h [2]: 1.38 ± 0.73 %ID/g | tissue uptake at 2 min [3]: 1.05 ± 0.25 %ID/g | tissue uptake at 5 min [3]: 0.87 ± 0.3 %ID/g | tissue uptake at 0.25 h [3]: 0.46 ± 0.1 %ID/g | tissue uptake at 0.5 h [3]: 0.39 ± 0.1 %ID/g | tissue uptake at 1 h [3]: 0.22 ± 0.05 %ID/g | tissue uptake at 2 h [3]: 0.58 ± 0.68 %ID/g | tissue uptake at 2 min (iv, 0.74 MBq (20 uCi) per mouse, Heart uptake): 9.15 ± 0.91 %ID/g | tissue uptake at 2 min [4]: 5.39 ± 0.84 %ID/g | tissue uptake at 5 min [4]: 6.06 ± 1.42 %ID/g | tissue uptake at 0.25 h [4]: 5.73 ± 0.64 %ID/g | tissue uptake at 0.5 h [4]: 6.28 ± 0.59 %ID/g | tissue uptake at 1 h [4]: 5.27 ± 1.09 %ID/g | tissue uptake at 2 h [4]: 4.18 ± 0.53 %ID/g | tissue uptake at 2 min [5]: 3.97 ± 0.56 %ID/g | tissue uptake at 5 min [5]: 5.91 ± 1.16 %ID/g | tissue uptake at 0.25 h [5]: 2.79 ± 0.68 %ID/g | tissue uptake at 0.5 h [5]: 3.32 ± 1.77 %ID/g | tissue uptake at 1 h [5]: 1.08 ± 0.21 %ID/g | tissue uptake at 2 h [5]: 1.22 ± 0.7 %ID/g | tissue uptake at 2 min [6]: 5.6 ± 0.85 %ID/g | tissue uptake at 5 min [6]: 5.08 ± 2.74 %ID/g | tissue uptake at 0.25 h [6]: 3.11 ± 1.47 %ID/g | tissue uptake at 0.5 h [6]: 2.59 ± 0.96 %ID/g | tissue uptake at 1 h [6]: 1.85 ± 1.48 %ID/g | tissue uptake at 2 h [6]: 1.1 ± 0.96 %ID/g | tissue uptake at 5 min (iv, 0.74 MBq, Heart uptake): 7.54 ± 2.08 %ID/g | tissue uptake at 0.25 h (iv, 0.74 MBq, Heart uptake): 3.57 ± 0.82 %ID/g | tissue uptake at 0.5 h (iv, 0.74 MBq, Heart uptake): 3.64 ± 0.66 %ID/g | tissue uptake at 1 h (iv, 0.74 MBq, Heart uptake): 1.19 ± 0.7 %ID/g | tissue uptake at 2 h (iv, 0.74 MBq, Heart uptake): 1.01 ± 0.15 %ID/g | tissue uptake at 2 min (iv, 0.74 MBq, Kidney uptake): 24.9 ± 1.12 %ID/g | tissue uptake at 5 min (iv, 0.74 MBq, Kidney uptake): 36.5 ± 2 %ID/g | tissue uptake at 0.25 h (iv, 0.74 MBq, Kidney uptake): 22.1 ± 1.43 %ID/g | tissue uptake at 0.5 h (iv, 0.74 MBq, Kidney uptake): 25.7 ± 1.17 %ID/g | tissue uptake at 1 h (iv, 0.74 MBq, Kidney uptake): 22.2 ± 1.92 %ID/g | tissue uptake at 2 h (iv, 0.74 MBq, Kidney uptake): 15.2 ± 0.96 %ID/g | tissue uptake at 2 min (iv, 0.74 MBq, Liver uptake): 8.01 ± 1.26 %ID/g | tissue uptake at 5 min (iv, 0.74 MBq, Liver uptake): 7.09 ± 2.03 %ID/g | tissue uptake at 0.25 h (iv, 0.74 MBq, Liver uptake): 14.8 ± 1.11 %ID/g | tissue uptake at 0.5 h (iv, 0.74 MBq, Liver uptake): 16.1 ± 2.34 %ID/g | tissue uptake at 1 h (iv, 0.74 MBq, Liver uptake): 21.6 ± 3.53 %ID/g | tissue uptake at 2 h (iv, 0.74 MBq, Liver uptake): 13.7 ± 2.35 %ID/g | tissue uptake at 2 min (iv, 0.74 MBq, Lung uptake): 6.26 ± 1.29 %ID/g | tissue uptake at 5 min (iv, 0.74 MBq, Lung uptake): 4.74 ± 1.69 %ID/g | tissue uptake at 0.25 h (iv, 0.74 MBq, Lung uptake): 3.05 ± 0.4 %ID/g | tissue uptake at 0.5 h (iv, 0.74 MBq, Lung uptake): 2.15 ± 0.27 %ID/g | tissue uptake at 1 h (iv, 0.74 MBq, Lung uptake): 2.19 ± 0.42 %ID/g | tissue uptake at 2 h (iv, 0.74 MBq, Lung uptake): 1.62 ± 0.35 %ID/g | tissue uptake at 2 min (iv, 0.74 MBq, Spleen uptake): 3.84 ± 1.47 %ID/g | tissue uptake at 5 min (iv, 0.74 MBq, Spleen uptake): 5.09 ± 1.29 %ID/g | tissue uptake at 0.25 h (iv, 0.74 MBq, Spleen uptake): 3.08 ± 0.55 %ID/g | tissue uptake at 0.5 h (iv, 0.74 MBq, Spleen uptake): 2.66 ± 0.22 %ID/g | tissue uptake at 1 h (iv, 0.74 MBq, Spleen uptake): 1.81 ± 0.57 %ID/g | tissue uptake at 2 h (iv, 0.74 MBq, Spleen uptake): 1.24 ± 0.3 %ID/g | tissue uptake at 2 min (iv, 0.74 MBq, Stomach uptake): 5.63 ± 1.98 %ID/g | tissue uptake at 5 min (iv, 0.74 MBq, Stomach uptake): 7.27 ± 1.89 %ID/g | tissue uptake at 0.25 h (iv, 0.74 MBq, Stomach uptake): 4.26 ± 0.55 %ID/g | tissue uptake at 0.5 h (iv, 0.74 MBq, Stomach uptake): 4.78 ± 0.98 %ID/g | tissue uptake at 1 h (iv, 0.74 MBq, Stomach uptake): 2.32 ± 0.56 %ID/g | tissue uptake at 2 h (iv, 0.74 MBq, Stomach uptake): 1.55 ± 0.2 %ID/g | In vivo defluorination (bone uptake): no obvious in vivo defluorination | Blood clearance (iv): rapid blood clearance
